Assay [1] concerns the target T1, recombinant alipidated human ApoE4 (human, UniProt P02649 19-317).
T1 construct: mature; full length recombinant protein made in E. coli or bought; biotinylated for SPR; position 112 is counted on the mature protein, not on the precursor entry; also called recApoE; non-lipidated ApoE4
Kind of assay: SPR, biotinylated recombinant apoE4 captured on a streptavidin chip; column Ka (1/Ms). The procedure:
(§1) ELISA plates were coated with 0.5 μg/ml of recombinant apoE2 (square), apoE3 (open circle), or apoE4 (closed circle). Then different concentrations of (A) HJ151, (B) HJ153, (C) HJ154, or (D) HJ156 were loaded on the plates. Horse-radish peroxidase labeled goat anti-mouse secondary antibodies were used to detect binding. […] HJ151 is specific for ApoE4 and HJ156 binds only ApoE3 and ApoE4. FIG. 5E-H are graphs depicting surface plasmon resonance profiles for various antibodies. Anti-ApoE antibodies were serially diluted 3-fold (starting at 100 nM for HJ153 (E), and 1000 nM for HJ151 (F), and […] (G)) for detection of binding to biotinylated-recombinant apoE4 captured on a streptavidin chip. Samples were injected at a flow rate of 30 μl/minute. (H) Apparent KD values of HJ151, HJ153 and HJ156 were calculated based on the SPR experiment.
(§2) ELISA plates were coated with 0.5 μg/ml of recombinant apoE2, apoE3, or apoE4. Then different concentrations of HJ151 (FIG. 5A), HJ153 (FIG. 5B), HJ154 (FIG. 5C), or HJ156 (FIG. 5D) were loaded on the plates. Horse-radish peroxidase labeled goat anti-mouse secondary antibodies were used to detect binding. […] HJ151 is specific for ApoE4 and HJ156 binds only ApoE3 and ApoE4. Surface plasmon resonance profiles for various antibodies was also performed.
(In general: SPR reads the build-up and loss of mass on a sensor chip optically.)

Assay [2] deals with T1, recombinant alipidated human ApoE4. Description: SPR, biotinylated recombinant apoE4 captured on a streptavidin chip; column Kd (1/s). The procedure:
as §1, §2

Assay [3] deals with T2, heat-induced aggregates of ApoE4 (human, UniProt P02649 19-317).
T2 construct: mature; aggregated state of the recombinant protein; also called ApoE4 incubated at 40 C for 24 hr; heat-treated ApoE4
Kind of assay: ELISA: pellet of heat-aggregated ApoE4 coated at 0.5 ug/ml, antibody titrated, HRP goat anti-mouse IgG, OD650. The procedure: (§3) The aggregated ApoE was induced by incubating ApoE at 1 mg/ml concentration at 40° C. for 24 hours. The aggregates then were recovered in the pellet fraction following ultracentrifugation at 186,000 g for 1 hour. For ELISA, the untreated ApoE or heat-induced aggregates of ApoE were coated directly to ELISA plates at 0.5 μg/ml overnight at 4° C. After three washes with PBS, the wells were blocked with 1% BSA-PBS for 1 hour at room temperature with shaking at 500 rpm. The blocked wells were washed once with PBS and subsequently loaded with antibodies at serial concentrations (starting at 100 nM with 5-fold dilutions thereafter). Bound antibodies were detected with HRP-labeled goat anti-mouse IgG (Jackson Immunoresearch) and visualized with TMB substrate at OD₆₅₀ (reaction stopped with BioFX stop solution).
Background: An ELISA detects its analyte on a solid surface through an enzyme-linked reagent.

Assay [4] has as its target T1, recombinant alipidated human ApoE4. Description: SPR, biotinylated recombinant apoE4 captured on a streptavidin chip; column Apparent KD (M). The protocol: as §1, §2
Assay [5] deals with T3, ApoE4 amino acids 24-125, expressed on yeast (human, UniProt P02649 42-143).
T3 construct: with myc tag, on yeast cells; range counts on the mature protein; also called helix1 + 2 + 3
T3 chain: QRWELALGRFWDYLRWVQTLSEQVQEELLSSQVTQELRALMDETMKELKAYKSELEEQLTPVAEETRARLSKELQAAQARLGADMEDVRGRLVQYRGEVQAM
Kind of assay: yeast display of myc-tagged ApoE4 fragment, antibody staining.

For assay [6], the target named is T4, ApoE4 amino acids 1-132, expressed on yeast (human, UniProt P02649 19-150).
T4 construct: with myc tag, on yeast cells; range counts on the mature protein; also called up to helix 3; not shown: myc tag and yeast surface-display partner
T4 chain: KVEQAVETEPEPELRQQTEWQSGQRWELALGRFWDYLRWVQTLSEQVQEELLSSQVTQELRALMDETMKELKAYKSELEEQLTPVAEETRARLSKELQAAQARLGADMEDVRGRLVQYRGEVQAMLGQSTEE
Described as above.

A further assay concerns the target T5, murine ApoE (mouse, UniProt P08226 19-311).
T5 sequence (looked up): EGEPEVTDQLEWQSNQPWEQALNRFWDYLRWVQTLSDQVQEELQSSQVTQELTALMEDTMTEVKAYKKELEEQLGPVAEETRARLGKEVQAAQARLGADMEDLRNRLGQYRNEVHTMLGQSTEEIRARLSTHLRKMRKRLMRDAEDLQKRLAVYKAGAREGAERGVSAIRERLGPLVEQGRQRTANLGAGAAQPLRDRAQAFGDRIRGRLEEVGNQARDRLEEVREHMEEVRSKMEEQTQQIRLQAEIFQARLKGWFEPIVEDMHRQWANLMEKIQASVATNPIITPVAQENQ
Description: not described.

Assay [7] deals with T6, recombinant alipidated human ApoE3 (human, UniProt P02649 19-317).
T6 construct: mature; full length recombinant protein made in E. coli or bought
Description: direct ELISA on coated recombinant alipidated ApoE (0.5 ug/ml). Summed up:
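Antibody dose-response curves were built by HRP-conjugated goat anti-mouse IgG detection of anti-ApoE antibodies bound to blocked plates. The coat was full-length alipidated recombinant ApoE at 0.5 μg/ml, applied overnight, either E. coli-expressed and purified or commercially sourced.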

Assay [8] concerns the target T7, heat-induced aggregates of ApoE3 (human, UniProt P02649 19-317).
T7 construct: mature; aggregated state of the recombinant protein; also called heat treated ApoE3
Kind of assay: ELISA: pellet of heat-aggregated ApoE3 coated at 0.5 ug/ml, antibody titrated, HRP goat anti-mouse IgG, OD650. The protocol: as §3

The kon is a measure of how fast the partners come together. The term koff denotes the first-order rate constant of dissociation. Broadly, the EC50 (read off the curve) is the concentration that produces a half-maximal response. A higher EC50 (read off the curve) goes with lower potency in that assay. One may read the EC50 as the concentration needed to bring the measured effect to its halfway point.

T1 sequence (P02649 19-317 C130R): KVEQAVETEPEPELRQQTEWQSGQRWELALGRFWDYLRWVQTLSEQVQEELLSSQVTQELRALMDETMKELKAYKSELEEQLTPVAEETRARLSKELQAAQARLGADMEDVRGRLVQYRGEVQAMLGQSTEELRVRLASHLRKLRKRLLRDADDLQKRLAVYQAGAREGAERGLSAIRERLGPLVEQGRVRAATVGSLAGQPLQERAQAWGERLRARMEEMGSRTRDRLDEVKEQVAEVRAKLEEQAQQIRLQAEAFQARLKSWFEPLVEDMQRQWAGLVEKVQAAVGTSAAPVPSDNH
T6 sequence (P02649 19-317): as the sequence (P02649 19-317 C130R) above, with R112C counted along it
T7 sequence (P02649 19-317): as the sequence (P02649 19-317 C130R) above, with R112C counted along it

B1: HJ151 (antibody, V domains shown)
VH: QVQLQQSGAELVRPGASVTLSCKASGYTFTDYEMHWVKQTPVHGLEWIGVIDPEKGGTAYNQKFKGKAILTADKSSSTAYMDLRSLTSEDSAVYYCLKDSWGQGTTLTVSS
VL: DVLMTQTPLSLPVSLGDQASISCRSSQTIVHSDGNTYLEWYLQKPGQSPKLLIYKVSNRFSGVPDRFSGSGSGTYFTLKISRVEAEDLGVYYCFQGSHVPCTFGGGTKLEIKR
notes: murine monoclonal antibody from hybridoma; also called HJ151B (biotinylated)
With B1, the kon in assay [1] amounted to 19700 M⁻¹ s⁻¹. Further, the koff in assay [2] worked out at 0.00119 s⁻¹. The “EC50 (read off the curve)” value in assay [3] is approximately 300 pM. Further, the Kd in [4] is 60200 pM. For the same molecule, the figures for the binding result (in [5]; in [6]; with murine ApoE) were “binds”, “binds” and “no binding”, respectively.

B2: HJ156 (antibody, V domains shown)
VH: QVQLQQSGPELVKPGASVKISCKASGYIFTDYYINWVKRRPGQGLEWIGWIFPGSGVSYYNEQFKGKATLTVDKPSNTAYIFLSRLTSEDSAVYFCARYYSSSPFAYWGQGTLVTVSA
VL: DVLMTQTPLSLPVSLGDQASISCRSSQNIIHSNGNTYLEWFLQRPGQSPELLIYKVSNRFSGVPDRFSGSGSGTDFTLKISRVEAEDLGVYYCFQGSHVPYTFGGGTKLEIKR
notes: murine monoclonal antibody from hybridoma; also called HJ156B (biotinylated)
Turning to B2, in assay [1], the kon came to 26400 M⁻¹ s⁻¹. For the same molecule, in [2], the off-rate constant (koff) was found to be 0.00523 s⁻¹. Also, the EC50 in [7] was 1690 pM. For the same molecule, the figures for the “EC50 (read off the curve)” value in assay [3] and in assay [8] were approximately 70 pM and approximately 90 pM, respectively. Moreover, the Kd in assay [4] came to 198000 pM. For the same molecule, the binding result in the assay with murine ApoE is reported as “no binding”.

B3: HJ154 (antibody, V domains shown)
VH: QVQLQQPGTEFVMSGASVMLSCKASGYIFTNYWLHWVKQRPGHGLEWIGEIDPSDSYSICNDNFKGKSTLTVDKSSSTAYMQLSSLTSEDSAVYYCAGSLGRVGLAYWGQGTLVTVST
VL: QIVLTQSPAIMSASPGEKVTMSCSASSSVSNMYWYQQKPGSSPKSWIYRTSNLASGVPARFSGSGSGTSYSLTISNMEAEDAATYYCQHYQNYPLTFGAGTKLELKR
notes: murine monoclonal antibody from hybridoma; also called HJ154B (biotinylated)
For the molecule B3, the 50% effective concentration (EC50) in [7] turned out to be 240 pM. The “EC50 (read off the curve)” value is approximately 300 pM in assay [3] and 160 to 200 pM in [8]. Further, the binding result in [5] and in assay [6] was “binds” in each case.

The values above are taken from patent US20250145697A1 (WASHINGTON UNIVERSITY, published 2025).
